The target of one assay is Myc-tagged LEF1 (UniProt Q9UJU2). Kind of assay: co-immunoprecipitation (anti-FLAG IP, immunoblot densitometry). The note with it: HEK293T cells, transfected; densitometry mean of three independent experiments; parent: 1.0. A general note: Immunoblotting shows a protein as a band on a membrane.
The target of another assay is Myc-tagged TCF7L2 (UniProt Q9NQB0). The description is as above. The note with it: HEK293T cells, transfected; densitometry mean of three independent experiments; parent: 1.0.
Sequence of UniProt Q9NQB0 (Q9NQB0 whole entry): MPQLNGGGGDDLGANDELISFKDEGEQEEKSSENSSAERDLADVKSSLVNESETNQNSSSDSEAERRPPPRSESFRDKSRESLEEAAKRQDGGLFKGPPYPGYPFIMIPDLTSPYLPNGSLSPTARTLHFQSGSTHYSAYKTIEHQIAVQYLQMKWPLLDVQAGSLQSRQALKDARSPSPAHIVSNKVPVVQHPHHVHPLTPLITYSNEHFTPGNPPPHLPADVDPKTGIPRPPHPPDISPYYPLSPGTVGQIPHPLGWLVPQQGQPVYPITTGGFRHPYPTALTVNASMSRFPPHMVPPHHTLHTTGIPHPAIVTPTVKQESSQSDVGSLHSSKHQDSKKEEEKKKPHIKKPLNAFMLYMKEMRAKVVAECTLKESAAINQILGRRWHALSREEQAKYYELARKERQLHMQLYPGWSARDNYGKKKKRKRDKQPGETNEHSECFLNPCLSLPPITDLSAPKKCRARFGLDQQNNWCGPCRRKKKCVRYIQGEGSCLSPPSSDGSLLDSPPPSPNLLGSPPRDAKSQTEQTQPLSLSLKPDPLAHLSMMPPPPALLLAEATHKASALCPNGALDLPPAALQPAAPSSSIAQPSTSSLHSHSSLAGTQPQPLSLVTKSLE

Sequence of UniProt Q9UJU2 (Q9UJU2 whole entry): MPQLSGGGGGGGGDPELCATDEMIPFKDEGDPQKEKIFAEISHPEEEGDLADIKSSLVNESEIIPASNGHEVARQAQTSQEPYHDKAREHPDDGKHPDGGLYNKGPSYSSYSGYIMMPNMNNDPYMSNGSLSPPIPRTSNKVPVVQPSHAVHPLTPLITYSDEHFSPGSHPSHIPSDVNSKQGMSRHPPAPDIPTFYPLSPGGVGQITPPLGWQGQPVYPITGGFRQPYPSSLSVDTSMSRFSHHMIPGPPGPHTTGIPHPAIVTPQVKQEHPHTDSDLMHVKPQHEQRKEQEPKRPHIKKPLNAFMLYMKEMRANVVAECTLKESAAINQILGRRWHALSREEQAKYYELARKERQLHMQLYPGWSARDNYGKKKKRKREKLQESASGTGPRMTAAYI

On to “FLAG-V5-tagged FBXW7α, wild type (from UniProt Q969H0) WD40 (three arginine residues within one WD40 repeat mutated; lane label WD)”, for which the ratio to parent with Myc-tagged LEF1 turned out to be 0.44; in the assay with Myc-tagged TCF7L2, 0.17.

The values above are taken from article PMC10565641.
